One assay concerns the target T1, Abl SH3 domain (Homo sapiens, UniProt P00519).
T1 construct: The abl SH3 domain was amplified by PCR using Phusion DNA polymerase; GST (N, cleaved yes); made in house; host or cells: E. coli BL21 (DE3)
The assay can be described thus: ITC binding to Abl SH3 domain. Conditions: for Kd / -TΔS / ΔG / ΔH: 25 °C. The procedure: (§1) All chemical reagents were purchased from Sigma-Aldrich and were used without further purification.
(§2) Peptide synthesis. All peptides were synthesized manually or with an AAPPTEC APEX 396 Automated Multipeptide Synthesizer using standard solid-phase Fmoc protocols.1,2 Peptides were prepared as C-terminal amides using Rink amide MBHA resin (AAPPTEC) and were acetylated at the N-terminus prior to cleavage from the resin. Peptides and metallopeptides were purified by reverse-phase HPLC.
(§3) HPLC separation. Reverse-phase HPLC was performed on a Shimadzu CBM-20A instrument with Phenomenex Jupiter 4μ Proteo 90A (250 × 15 mm preparative) and Phenomenex Jupiter 4μ Proteo 90A (250 × 4.6 mm analytical) columns. The columns were eluted with a gradient of acetonitrile in water (10-90%) (flow rates of 8 mL/min and 1 mL/min for preparative and analytical columns, respectively). Trifluoroacetic acid (0.1%) was added to all eluents.
(§4) FPLC separation. Analytical FPLC was performed on an ÄKTA instrument with Superdex Peptide PE 7.5/300 column. The column was equilibrated with buffer (150 mM NaCl, 50 mM Tris, pH 7.0) at flow rate of 0.2 mL/min.
(§5) ITC analysis. ITC experiments were carried out on a VP-ITC instrument (MicroCal) at 25 °C. Titrations of 275 μM peptide into 18 μM SH3 domain proteins were used for all titrations, except for the titration of S2ERh into Lyn SH3 domain, where the lower concentrations of 69 µM S2ERh peptide and 4 µM Lyn SH3 were used to attain a c-value for the titration within the accepted limts for ITC experiments ([…]).3
(§6) Heats of dilutions were measured independently for each experiment by titrating 275 μM peptide into buffer (20 mM phosphate buffer, pH 7, 150 mM NaCl, 1 mM EDTA). All experimental data were fitted using a one set of sites binding model in Origin software (MicroCal) except for the data with Hck SH3 domain. With Hck only, the non-peptide specific binding of dirhodium tetraacetate to Hck SH3 domain could not be treated as negligible, despite the very weak interaction (88 µM), due to the larger enthalpy contribution observed for non-specific binding to this SH3 domain, so the titrations of peptide into Hck were fitted using a 2 set of sites binding model where the stoichiometry for the second set of sites was fixed at 2.0. […]
(§7) Mass spectrometry. ESI-MS was performed on a Bruker Daltonics micrOTOF instrument.
(§8) Known compounds and proteins. Several metallopeptides (S2ERh, L3ERh, R5ERh, and 13DRh) were reported previously and were prepared by known protocols;4 alkyne-diazo 3,5 3-azido-7-hydroxycoumarin6 were synthesized following reported procedures; fyn, yes, lck, and src SH3 protein domains were prepared following published procedures.5 Abl, hck, and lyn SH3 domain plasmids were adapted from the previously reported genes;7 the gene templates were obtained from Addgene, ID

A further assay concerns the target Abl. The arrangement: method as in PMID 8718852. Conditions: read-out: affinity for Abl; cited from earlier work.
For another assay, the target named is T2, Lyn SH3 domain (Homo sapiens, UniProt P07948).
T2 construct: The lyn SH3 domain was amplified by PCR using Phusion DNA polymerase; GST (N, cleaved yes); made in house; host or cells: E. coli BL21 (DE3)
T2 sequence (P07948 62-121): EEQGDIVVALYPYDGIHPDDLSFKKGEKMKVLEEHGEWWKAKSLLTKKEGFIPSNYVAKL
The assay can be described thus: ITC binding of metallopeptides to Lyn SH3 domain. Conditions: 25 °C.
Excerpt: The His96 is unique among Src-family sequences, and the His78 appears only in Hck and Lck. Individual amino-acid alterations are the only factors that might distinguish the nearly identical secondary structures and peptide-binding preferences of Src-family SH3 domains (cf. Fig. 1a and b). Based on a Src-family SH3-binding sequence (VSL12),[37] known to bind with similar affinity across Src-family SH3 domains,[38] we made metallopeptides with rhodium in different sites near the beginning of the SH3-binding peptide. […] The optimal metallopeptide, S2E^Rh, bound to Lyn with 6 nM affinity. The accuracy of ITC data is reduced for C values >1000 (C = [protein]/K d). Under these conditions the distribution of data points on the isotherm reduces the precision of the global fit. Since the enthalpic contributions to binding in the formation of the complexes described in this work were high, we were able to use a low protein concentration (4 μM) which ensured that our C values were well below this upper range. […] In broad terms, the thermodynamics—favourable enthalpy and unfavourable entropy—are consistent with previous examinations of peptide–SH3 binding (see Table S1 ^† for thermodynamic data).[39] Moving the location of the rhodium center toward the N-terminus, away from the histidine, led to a drop in binding affinity. The N13D^Rh metallopeptide, a convenient negative control with the rhodium center too far for histidine interactions, binds with micromolar activity, similar to simple SH3 binding of the parent peptide. We conclude that the vast affinity improvement is due to rhodium coordination to unique histidine residue(s).
as §1, §2
(§9) HPLC separation. Reverse-phase HPLC was performed on a Shimadzu CBM-20A instrument with Phenomenex Jupiter 4μ Proteo 90A (250 × 15 mm preparative) and Phenomenex Jupiter 4μ Proteo 90A (250 × 4.6 mm analytical) columns. The columns were eluted with a gradient of acetonitrile in water (10-90%) (flow rates of 8 mL/min and 1 mL/min for preparative and analytical columns, respectively). Trifluoroacetic acid (0.1%) was added to all eluents. […]
as §5, §6, §7
Known compounds and proteins. Several metallopeptides (S2ERh, L3ERh, R5ERh, and 13DRh) were reported previously and […]

The target in another assay is T3, Hck SH3 domain (Homo sapiens, UniProt P08631).
T3 construct: The hck SH3 domain was amplified by PCR using Phusion DNA polymerase; GST (N, cleaved yes); made in house; host or cells: E. coli BL21 (DE3)
T3 sequence (P08631 77-139): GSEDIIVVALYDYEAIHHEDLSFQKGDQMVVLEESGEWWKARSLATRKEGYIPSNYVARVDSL
The assay can be described thus: ITC binding to Hck SH3 domain (two-sets-of-sites fit). Particulars: 25 °C, high affinity specific site. The procedure: as §1, §2, §9, §5, §6, §7
Known compounds and proteins. Several metallopeptides (S2ERh, L3ERh, R5ERh, and 13DRh) were reported previously and were prepared by known protocols;4 alkyne-diazo 3,5 3-azido-7-hydroxycoumarin6 were synthesized following reported procedures; fyn, yes, lck, and src SH3 protein domains were prepared following published procedures.5 Abl, hck, and lyn SH3 domain plasmids were adapted from the previously reported genes;7 the gene templates were obtained from Addgene, ID […]
Table S1. Table of the thermodynamic parameters for binding of metallopeptides to SH3 domains, determined by isothermal […]
Protein Peptide Stoichiometry Kd ΔH -TΔS ΔG
(nM) (kcal mol-1) (kcal mol-1) (kcal mol-1)
* The binding isotherms for metallopeptide interactions with Hck were fitted using a two -sets-of-sites model with the stoichiometry for the second set of sites fixed to 2.0. The second set of binding sites was used to account for the weak, but not negligable, binding of the peptide to another surface of Hck SH3 domain, presumably through non-specific interactions of the dirhodium tetraacetate group. The thermodynamics for the high affinity specific binding site interaction are provided in this

A further assay concerns the target T4, Lck SH3 domain (Homo sapiens, UniProt P06239).
T4 construct: fyn, yes, lck, and src SH3 protein domains were prepared following published procedures; made in house
The assay can be described thus: ITC binding to Lck SH3 domain. Particulars: 25 °C. The procedure: (§10) All chemical reagents were purchased from Sigma-Aldrich and were used without further purification. […]
as §5, §6
Known compounds and proteins. […]

The target of assay [1] is T5, Full-length Lyn kinase (GST-tagged Lyn B) (Homo sapiens, UniProt P07948).
T5 construct: Full-length Lyn kinase (74 nM) was treated with substrate peptide and ATP; purchased Promega
T5 sequence (P07948 1-491 isoform P07948-2): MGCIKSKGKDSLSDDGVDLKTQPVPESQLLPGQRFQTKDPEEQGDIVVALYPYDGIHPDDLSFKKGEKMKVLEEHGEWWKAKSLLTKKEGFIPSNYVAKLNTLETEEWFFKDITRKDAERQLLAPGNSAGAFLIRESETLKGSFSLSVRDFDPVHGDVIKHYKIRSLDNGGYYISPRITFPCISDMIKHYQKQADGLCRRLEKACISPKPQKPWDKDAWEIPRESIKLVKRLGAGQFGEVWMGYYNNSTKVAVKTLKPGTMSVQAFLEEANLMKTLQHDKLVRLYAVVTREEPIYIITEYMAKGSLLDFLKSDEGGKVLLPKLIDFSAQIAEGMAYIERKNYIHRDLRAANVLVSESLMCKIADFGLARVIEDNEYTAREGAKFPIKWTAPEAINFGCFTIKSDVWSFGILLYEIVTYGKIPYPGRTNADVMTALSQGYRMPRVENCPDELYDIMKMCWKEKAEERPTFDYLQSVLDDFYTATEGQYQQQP
The assay can be described thus: Lyn kinase activation assay (ADP-Glo Kinase Assay). It is filed as biochemical. Conditions: 74 nM Lyn, 5 min. The procedure:
We examined phosphorylation of a peptide substrate at low enzyme concentration (0.074 μM) and short reaction time (t = 5 min) to minimize the alternative autophosphorylation activation pathway (Fig. 6). Kinase activation with traditional ligands has typically required high ligand concentrations (∼1 mM) to overcome the intramolecular nature of the SH3–kinase domain interaction.
Fig. 6 Activation of Lyn kinase activity by a metallopeptide, S2E^Rh, and the parent peptide, S2E. […] Full-length Lyn kinase (74 nM) was treated with substrate peptide and ATP. Kinase activity was measured after 5 min in an adaptation of reported methods.[5] See ESI ^† for details.
as §10
Kinase assay. ATP turnover by Lyn was measured using the ADP-GloTM Kinase Assay (Promega) according to the manufacturer’s protocol. Briefly, final concentrations of 72 μM ATP, 74 nM Lyn (GST-tagged Lyn B), and 240 μM substrate peptide (all from Promega) were combined in buffer (40 mM Tris, 50 μM dithiothreitol, 2 mM MnCl2 and 0.1 mg/mL BSA at pH 7.5) with a solution of the desired treatment (or control) in the same buffer for a final reaction volume of 5 µL. The kinase reaction was allowed to proceed at room temp. for 5 min from addition of ATP before the start of the ADP-Glo protocol halted the reaction. Chemiluminescence data were acquired on a Tecan Infinite M1000 microplate reader in white 384 well low volume plates (Corning Costar 3674) with an integration time of 250 ms per well. […]

A further assay deals with T6, Yes SH3 domain (Homo sapiens, UniProt P07947).
T6 construct: fyn, yes, lck, and src SH3 protein domains were prepared following published procedures; made in house
T6 sequence (P07947 91-152 limits assumed): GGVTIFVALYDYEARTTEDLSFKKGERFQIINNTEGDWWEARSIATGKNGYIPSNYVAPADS
The assay can be described thus: ITC binding to Yes SH3 domain. The protocol: as §1, §2, §3, §4, §5, §6, §7, §8

The mark [2] stands for this setting: Yes SH3, ITC, 25 °C, read-out: SH3 Kd.

“Also recorded” adds a separate entry of the source. Read-outs that look alike come from different tables or passages of the source. Rh2(OAc)3 = dirhodium(II) triacetate, bound to the side-chain carboxylate

T4 sequence (P06239 61-121 limits assumed): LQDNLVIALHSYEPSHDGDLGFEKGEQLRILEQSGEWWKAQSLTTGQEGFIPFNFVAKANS
T1 sequence (P00519 60-121): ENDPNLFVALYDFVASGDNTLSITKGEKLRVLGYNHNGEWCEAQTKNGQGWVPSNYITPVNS

The compound “E^RhPTYSPPPPP (Ac-E(Rh2(OAc)3)PTYSPPPPP-NH2; also: metal complex: Glu1 carboxylate bound to dirhodium(II) triacetate) [p40-A1E^Rh]” registered a Kd with Abl SH3 domain of 22 nM.
Consider E^RhPTYSPPPPP [p40-A1E^Rh], for which, on Abl SH3 domain, the Stoichiometry is 1.0, the “-TΔS” value came out at 8.9 kcal/mol, the ΔG is -10.5 kcal/mol and the ΔH was -19.4 kcal/mol.
For APTYSPPPPP [p40], the Kd at Abl was 400 nM.
As for “R6E^Rh: rhodium(II) metallopeptide based on Src-family SH3-binding sequence (VSL12), rhodium at residue 6 (VSLAREPLPPLPN; N-terminal acetyl, C-terminal amide)”, the Kd with Lyn SH3 domain worked out at 152 nM; in the assay with Hck SH3 domain, 51 nM; with Lck SH3 domain, 3790 nM.
For the compound `CC(=O)[O-].CC(=O)[O-].CC(=O)[O-].CC(=O)[O-].[Rh+2].[Rh+2]` [Rh2(OAc)4, reference compound], on Lyn SH3 domain, the “-TΔS” value came to 1.0 kcal/mol, the Kd was determined as 150000 nM, the ΔG was -5.2 kcal/mol and the ΔH is -6.3 kcal/mol. Moreover, on Hck SH3 domain, the “-TΔS” value is -1.0 kcal/mol, the Kd came to 89000 nM, the ΔG was -5.5 kcal/mol and the ΔH was -4.5 kcal/mol. Besides, the “Lyn kinase activation” value in assay [1] is “no activation; also recorded: had no effect on kinase activity”.
Consider “R5E^Rh: rhodium(II) metallopeptide based on Src-family SH3-binding sequence (VSL12), rhodium at residue 5; catalyst for Yes SH3 modification (VSLAERPLPPLPN; N-terminal acetyl, C-terminal amide)”, for which the Kd with Lyn SH3 domain came out at 81 nM; with Yes SH3 domain (setting [2]), 1740 nM.
For the compound “L3E^Rh: rhodium(II) metallopeptide based on Src-family SH3-binding sequence (VSL12), rhodium at residue 3 (VSEARRPLPPLPN; N-terminal acetyl, C-terminal amide)”, the Kd with Lyn SH3 domain was determined as 30 nM; with Hck SH3 domain, 52 nM; in the assay with Hck SH3 domain (listed as L3ERh), 22 nM; with Yes SH3 domain (setting [2]), 3740 nM.
Take APTE^RhSPPPPP [p40-Y4E^Rh]: at Abl SH3 domain, the Stoichiometry is on record as 1.2, the “-TΔS” value turned out to be 5.3 kcal/mol, the ΔG was -7.0 kcal/mol and the ΔH was -12.3 kcal/mol.
As for “N13D^Rh: negative control metallopeptide with the rhodium center too far for histidine interactions (VSLARRPLPPLPD; N-terminal acetyl, C-terminal amide)”, the Kd with Lyn SH3 domain was found to be 1200 nM; in the assay with Hck SH3 domain, 544 nM; with Lck SH3 domain it was 239 nM; with Yes SH3 domain (Yes SH3, ITC, 25 °C, listed as N13DRh, read-out: SH3 Kd), 238 nM; with Yes SH3 domain (setting [2]), 301 nM; in the assay with Yes SH3 domain (Yes SH3, unit inferred, read-out: Affinity of designed rhodium(II) metallopeptides (Fig. 1d)) it was 299 nM. In the assay with Abl SH3 domain, this compound displayed a Kd of 8850 nM.
As to “P12D^Rh: metallopeptide with the rhodium core moved to the 12th residue (VSLARRPLPPLDN; N-terminal acetyl, C-terminal amide)”, the Kd with Hck SH3 domain is 2320 nM; in the assay with Lck SH3 domain, 79 nM.

Values taken from article PMC5667506, “Potent and selective inhibition of SH3 domains with dirhodium metalloinhibitors” (Chemical Science, 2015).
